What is called Kd is the concentration at which binding is half-saturated. Broadly, the koff is a measure of how fast the partners let go of each other. Broadly, the kon is the rate constant with which the complex forms. By t½ is commonly meant the time in which the quantity being followed falls by half. In general, IC50 refers to the midpoint of a concentration-inhibition curve.

We go through one molecule from patent publication US20140044730A1.

Experiment [1] has as its target human PCSK9 with a C-terminal myc-myc-hexahistidine tag (human) (UniProt Q8NBP7). The experiment in a line: SPR (Biacore), 37 °C; antibody captured on anti-human Fc surface, hPCSK9-mmH injected (3.125-50 nM); association at pH 7.4, dissociation at pH 7.4. (In general: In SPR one partner is held on a chip, and binding of the other changes the refractive index at the surface.)

The target is the same in experiment [2]. The experiment in a line: SPR (Biacore), 37 °C; antibody captured on anti-human Fc surface, hPCSK9-mmH injected (3.125-50 nM); association at pH 7.4, dissociation at pH 6.0.
Experiment [3] has the same target. The experiment in a line: SPR 25C pH 7.4, purified mAb captured.
Experiment [4] addresses human PCSK9 with a C-terminal myc-myc hexahistidine tag and a D374Y mutation (human) (UniProt Q8NBP7). The experiment in a line: cell-based or functional assay.
Experiment [5] deals with recombinant cynomolgus monkey PCSK9 with a C-terminal myc-myc hexahistidine tag (cynomolgus monkey). The experiment in a line: cell-based or functional assay.
Experiment [6] concerns the target human PCSK9 with a C-terminal myc-myc-hexahistidine tag (human) (UniProt Q8NBP7). The experiment in a line: cell-based or functional assay.
Experiment [7] has the same target. The experiment in a line: blocking ELISA pH 7.2, 500 pM hPCSK9-mmH vs coated hLDLR EGFA-hFc.
Experiment [8] shares this target. The experiment in a line: SPR (Biacore), 37 °C; antibody captured on anti-human Fc surface, hPCSK9-mmH injected (3.125-50 nM); association at pH 7.4, dissociation at pH 5.75.
For experiment [9] the target is unchanged. The experiment in a line: blocking ELISA pH 5.75, 500 pM hPCSK9-mmH vs coated hLDLR EGFA-hFc. Background: In an ELISA, binding on a coated surface is turned into a signal by an enzyme label.
For experiment [10] the target is unchanged. The experiment in a line: SPR 25C, purified mAb captured.
Experiment [11] has the same target. The experiment in a line: SPR 25C pH 6.0, purified mAb captured.
Experiment [12] has the same target. The experiment in a line: SPR (Biacore), 37 °C; antibody captured on anti-human Fc surface, hPCSK9-mmH injected (3.125-50 nM); association at pH 7.4, dissociation at pH 7.2.
For experiment [13] the target is unchanged. The experiment in a line: blocking ELISA, hPCSK9-mmH vs coated hLDLR EGFA-hFc.

B1: Comparator 7 (antibody, from another filing, IgG2, V domains shown)
VH: QVQLVQSGAEVKKPGASVKVSCKASGYTLTSYGISWVRQAPGQGLEWMGWVSFYNGNTNYAQKLQGRGTMTTDPSTSTAYMELRSLRSDDTAVYYCARGYGMDVWGQGTTVTVSS
VL: QSALTQPASVSGSPGQSITISCTGTSSDVGGYNSVSWYQQHPGKAPKLMIYEVSNRPSGVSNRFSGSKSGNTASLTISGLQAEDEADYYCNSYTSTSMVFGGGTKLTVLQ
Consider B1, for which, in experiment [1], the t½ (dissociative half-life) was 1.5 h. Moreover, in [2], the t½ (dissociative half-life) was 1.19 h. In experiment [3], the Kd stood at 0.728 nM, the koff was 6.09e-05 s⁻¹, the kon came out at 83600 M⁻¹ s⁻¹ and the t½ stood at 3.16 h. In experiment [4], the IC50, LDL uptake in HepG2 cells, 2 nM hPCSK9-D374Y-mmH came to 0.97 nM. Also, the IC50, LDL uptake in HepG2 cells, 50 nM MfPCSK9-mmH in experiment [5] was determined as 10.4 nM. Further, the IC50, LDL uptake in HepG2 cells, 50 nM hPCSK9-mmH in [6] was found to be 8.9 nM. The same molecule gave a half-maximal inhibitory concentration (IC50) in experiment [7] of 0.245 nM. In experiment [8], this molecule gave a t½ (dissociative half-life) of 1.44 h. The same molecule had an IC50 in [9] of 0.331 nM. For the same molecule, in experiment [10], the KD ratio pH 6.0/pH 7.4 worked out at 0.28, the ka ratio pH 6.0/pH 7.4 came to 1.65, the kd ratio pH 6.0/pH 7.4 was determined as 0.47 and the t½ ratio pH 6.0/pH 7.4 came out at 2.15. In experiment [11], the Kd was determined as 0.205 nM, the koff is 2.84e-05 s⁻¹, the kon is 138000 M⁻¹ s⁻¹ and the t½ is 6.79 h. This molecule returned a t½ (dissociative half-life) in experiment [12] of 1.47 h. Also, in experiment [13], the IC50 ratio (pH 5.75/pH 7.2) was 1.3.
